For assay [1], the target named is T1, Human PD-1 extracellular domain, mFc tag (human, UniProt Q15116 25-170).
T1 construct: extracellular domain; also called hPro1.ECD.mFc; hPD-1.ECD.mFc; not shown: mouse Fc tag at C-terminus
Briefly: ELISA competition on coated hPro1.ECD.mFc; competitor hPro1L2.ECD.His; experiment 1. As for the experimental part:
Plates were pre-coated with 1 μg/mL, 100 μL per well of human PD-1 ECD (hPro1.ECD.mFc) at 4° C. overnight. After 1-hour blocking using 200 μL of 1×PBS/2% BSA, constant concentration of his tagged human PD-L2 ECD (hPro1L2.ECD.His) and various concentrations of testing antibodies (3-fold serially diluted from 66.7 nM to 0.003 nM) were pre-mixed and added to the plates. After 2-hour incubation at ambient temperature, the binding of the ligand to the immobilized protein was detected by HRP-labeled goat anti-His antibody. The color was developed by dispensing 100 μL of TMB substrate, and then stopped by 100 μL of 2N HCl. The absorbance was read at 450 nm and 540 nm using a microplate spectrophotometer.
In general terms: ELISA stands for enzyme-linked immunosorbent assay.

For assay [2], the target named is T2, Cynomolgus PD-1 (soluble analyte in SPR, Table 11) (cynomolgus, UniProt B0LAJ3 25-170).
T2 construct: also called cyno PD-1
Briefly: SPR Biacore 8K; antibody captured on anti-human Fc chip, PD-1 injected; 1:1 fit. Here is the method: (§1) Antibody binding affinity to human, mouse and cynomolgus PD-1 was detected using Biacore 8K. W3056-AP17R1-2H2-Z1-R1-14A1-FC (IgG4.SP) was captured on an anti-human Fc IgG antibody immobilized CM5 sensor chip (GE). Human, mouse and cynomolgus PD-1 at different concentrations were injected over the sensor chip at a flow rate of 30 uL/min for an association phase of 120 s, followed by 150 s dissociation. The chip was then regenerated by 10 mM Glycine pH 1.5 after each binding cycle.
(§2) The sensorgrams of blank surface and buffer channel were subtracted from the test sensorgrams. The experimental data was fitted by 1:1 model using Langmiur analysis. Molecular weight of 40, 45 and 40 kDa was used to calculate the molar concentration of analyte human, mouse and cynomolgus PD-1 respectively.
In general terms: Surface plasmon resonance follows binding to a sensor surface in real time, without labels.

Assay [3] concerns the target Human PD-1 (soluble analyte in SPR, Table 11) (human, UniProt Q15116 25-167). The description is as above. Here is the method:
as §1, §2

Assay [4] addresses T3, Mouse PD-1 (soluble analyte in SPR, Table 11) (mouse, UniProt Q02242 25-167, limits assumed).
T3 sequence (looked up): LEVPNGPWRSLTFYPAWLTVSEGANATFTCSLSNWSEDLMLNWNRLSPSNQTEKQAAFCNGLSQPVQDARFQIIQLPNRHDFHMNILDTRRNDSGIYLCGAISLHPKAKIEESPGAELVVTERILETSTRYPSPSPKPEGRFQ
The description is as above. Here is the method:
as §1, §2

One may read the IC50 as the midpoint of a concentration-inhibition curve. The low end stands for higher potency, the high end for lower potency. In general, Kd refers to the concentration at which binding is half-saturated. Low values mean higher affinity, high ones lower affinity. The term koff denotes the first-order rate constant of dissociation. Read a low koff as a long-lived complex. What is called kon is the rate constant with which the complex forms. A low value points to slow association.

Chain of Human PD-1 (soluble analyte in SPR, Table 11) (Q15116 25-167 limits assumed): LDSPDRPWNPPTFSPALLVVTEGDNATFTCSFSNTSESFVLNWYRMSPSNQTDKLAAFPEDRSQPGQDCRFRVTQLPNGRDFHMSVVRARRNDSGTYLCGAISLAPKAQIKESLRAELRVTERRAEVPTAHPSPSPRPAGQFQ
T2 sequence (B0LAJ3 entry or part of it limits assumed): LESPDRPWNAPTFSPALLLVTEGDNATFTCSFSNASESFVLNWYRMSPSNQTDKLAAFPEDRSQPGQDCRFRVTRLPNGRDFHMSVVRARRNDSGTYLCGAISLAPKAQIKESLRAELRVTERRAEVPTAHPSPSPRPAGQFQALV
T1 sequence (Q15116 25-170): as the sequence (B0LAJ3 entry or part of it limits assumed) above, with E2D, A10P, L19V, A35T, R75Q, A144T counted along it

B1: W3056-AP17R1-2H2-FC(IgG4.SP) (Fc fusion)
chain: QVQLVESGGGLVQPGGSLRLSCAASDSIDSLVNMGWYRQAPGKQRELVALIANYITHYADFVKGRFTISRDAAKNTVNLQMSSLKPEDTAVYYCYARNIIVDYWGQGTQVTVSS
notes: VHH fused to Fc of human IgG4 S228P; also called W3056 lead parental antibody (VHH-Fc(hIgG4) fusion); not shown: Fc of human IgG4 (hIgG4.S228P)
Consider B1, for which the IC50 in assay [1] is 2.02 nM. This counts as single-digit nanomolar.

B2: W3056-AP17R1-2H2-Z1-R1-14A1-FC(IgG4.SP) (Fc fusion)
chain: QVQLVESGGGVVQPGGSLRLSCAASDSIDSLVNMGWYRQAPGKQRELVALIATYITHYADFVKGRFTISRDNSKNTLYLQMNSLRAEDTAVYYCYARNIIVDYWGQGTLVTVSS
notes: also called W3056 lead antibody (VHH-Fc(hIgG4) fusion); not shown: Fc of human IgG4 (hIgG4.S228P)
As to B2, in assay [2], the Kd turned out to be 8.53 nM, the koff was found to be 0.00177 s⁻¹ and the kon came to 208000 M⁻¹ s⁻¹. For the same molecule, in assay [3], the Kd came to 3.45 nM, the koff was 0.000857 s⁻¹ and the kon was found to be 248000 M⁻¹ s⁻¹. Besides, in assay [4], binding was characterised by a dissociation constant (Kd) of 28.7 nM, the koff worked out at 0.00422 s⁻¹ and the kon turned out to be 147000 M⁻¹ s⁻¹.

The values above are taken from US20240301067A1 (WUXI BIOLOGICS IRELAND, published 2024).
